This is an account of results in patent US20130157934A1 (INDIANA UNIVERSITY RESEARCH AND TECHNOLOGY, published 2013).

What all share (test): cell-based or functional assay
The target of assay [1] is T1, GLP-1 receptor (UniProt P43220 24-463, limits assumed).
Assay [2] has as its target T2, glucagon receptor (UniProt P47871 26-477, limits assumed).
For assay [3], the target named is T1, GLP-1 receptor. This is another data set of the same source.
The target of assay [4] is T2, glucagon receptor. The source holds these as a separate data set.

Where two headings read alike, the source gives them in different places. Positions of bridges follow the written chain, without caps; N, C: chain ends. Non-standard residues stand in square brackets, D forms with d. No end group written: not given here. PhLac = O=C(O)[C@@H](O)Cc1ccccc1

T1 sequence (P43220 24-463 limits assumed): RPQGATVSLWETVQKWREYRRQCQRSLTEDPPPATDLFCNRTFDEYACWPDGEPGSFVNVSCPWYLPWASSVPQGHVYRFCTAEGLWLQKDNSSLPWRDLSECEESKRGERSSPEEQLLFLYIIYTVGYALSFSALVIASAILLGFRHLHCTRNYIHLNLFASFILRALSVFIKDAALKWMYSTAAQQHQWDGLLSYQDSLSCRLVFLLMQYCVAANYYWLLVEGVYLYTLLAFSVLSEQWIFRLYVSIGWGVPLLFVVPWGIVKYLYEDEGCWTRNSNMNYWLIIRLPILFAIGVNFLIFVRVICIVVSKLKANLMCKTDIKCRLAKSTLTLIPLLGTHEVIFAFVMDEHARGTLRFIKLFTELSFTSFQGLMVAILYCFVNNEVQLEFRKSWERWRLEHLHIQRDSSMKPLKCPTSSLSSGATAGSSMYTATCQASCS
T2 sequence (P47871 26-477 limits assumed): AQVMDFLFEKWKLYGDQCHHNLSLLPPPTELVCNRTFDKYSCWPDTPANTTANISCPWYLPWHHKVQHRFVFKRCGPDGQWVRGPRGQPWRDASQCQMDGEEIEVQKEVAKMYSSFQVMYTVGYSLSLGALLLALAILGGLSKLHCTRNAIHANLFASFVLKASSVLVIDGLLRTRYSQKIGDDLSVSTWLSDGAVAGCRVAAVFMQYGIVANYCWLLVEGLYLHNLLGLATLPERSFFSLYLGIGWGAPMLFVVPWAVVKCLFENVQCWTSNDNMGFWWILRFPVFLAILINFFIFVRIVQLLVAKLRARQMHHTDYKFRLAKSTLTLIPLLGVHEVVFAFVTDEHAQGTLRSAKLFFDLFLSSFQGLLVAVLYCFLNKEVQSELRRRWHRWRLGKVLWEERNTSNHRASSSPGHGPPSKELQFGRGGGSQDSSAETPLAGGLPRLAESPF

B1: [PLA6, D9, K12E16(Lactam), D28]G(6-29) (peptide)
peptide: [PhLac]TSDYSKYLDERRAQDFVQWLMDT-NH2
modifications: lactam 7-11; not fully specified
With B1, the GLP-1 EC50 with GLP-1 receptor [1] was 177 nM; with GLP-1 receptor [3] it was 21 nM. Also, the Glucagon IC50 stood at 63 nM in the assay with glucagon receptor [2] and 13 nM with glucagon receptor [4].
